Test results taken from patent publication US20240132578A1.

Columns and labels:
Experiment in all cases: cell-based or functional assay
[1] = target: HIV-1 Env of isolate MGRM-F1-015 (HIV-1)
[2] = target: HIV-1 Env of isolate MGRM-A-008 (subtype A) (HIV-1)
[3] = target: HIV-1 Env of isolate CAAN.A2 (HIV-1)
[4] = target: HIV-1 Env of isolate MGRM-D-020 (pseudovirus) (HIV-1)
[5] = target: HIV-1 Env of isolate MGRM-F1-014 (HIV-1)
[6] = target: HIV-1 Env of isolate MGRM-F1-023 (HIV-1)
[7] = target: HIV-1 Env of isolate MGRM-D-008 (pseudovirus) (HIV-1)
[8] = target: HIV-1 Env of isolate MGRM-Chronic-B-003 (HIV-1)
[9] = target: HIV-1 Env of pseudovirus isolate MGRM-C-028 (clade C) (HIV-1)
[10] = target: HIV-1 envelope glycoprotein (Env) of isolate MGRM-AE-002, subtype AE (HIV-1)
[11] = target: HIV-1 envelope glycoprotein (Env) of isolate MGRM-Chronic-B-017, on pseudovirus (HIV-1)
[12] = target: HIV-1 envelope glycoprotein (Env) of isolate MGRM-Chronic-B-018, on pseudovirus (HIV-1)
[13] = target: HIV-1 envelope glycoprotein (Env) of isolate MG RM-A-006, subtype A (HIV-1)
[14] = target: HIV-1 MGRM-AG-005 Env (pseudovirus) (HIV-1)
[15] = target: HIV-1 MGRM-D-018 Env (HIV-1)
[16] = target: HIV-1 APV6 Env (HIV-1)
[17] = target: HIV-1 Env of isolate MGRM-AG-006 (pseudovirus) (HIV-1)
[18] = target: HIV-1 Env of isolate MGRM-AG-002 (pseudovirus) (HIV-1)
[19] = target: HIV-1 envelope glycoprotein (Env) of isolate MGRM-Chronic-B-002, on pseudovirus (HIV-1)
[20] = target: HIV-1 Env of isolate MGRM-G-004 (subtype G) (HIV-1)
[21] = target: HIV-1 Env of isolate CMU02 (pseudovirus) (HIV-1)
[22] = target: HIV-1 Env of isolate MGRM-G-014 (subtype G) (HIV-1)
[23] = target: HIV-1 Env of isolate MGRM-G-006 (subtype G) (HIV-1)
[24] = target: HIV-1 Env of isolate MGRM-AE-002 (pseudovirus) (HIV-1)
[25] = target: HIV-1 Env of isolate MGRM-G-019 (subtype G) (HIV-1)

Sequence of 5329_C19 (PGT-136) (antibody) (VH): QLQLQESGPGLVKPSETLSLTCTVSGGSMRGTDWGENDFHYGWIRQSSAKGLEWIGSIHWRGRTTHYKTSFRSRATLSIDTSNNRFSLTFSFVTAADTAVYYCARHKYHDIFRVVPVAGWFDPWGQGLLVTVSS
Sequence of 5329_C19 (PGT-136) (antibody) (VL): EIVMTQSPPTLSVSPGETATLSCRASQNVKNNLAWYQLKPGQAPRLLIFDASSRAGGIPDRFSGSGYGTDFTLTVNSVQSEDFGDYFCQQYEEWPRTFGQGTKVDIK
Sequence of 5345_I01 (PGT-137) (antibody) (VH): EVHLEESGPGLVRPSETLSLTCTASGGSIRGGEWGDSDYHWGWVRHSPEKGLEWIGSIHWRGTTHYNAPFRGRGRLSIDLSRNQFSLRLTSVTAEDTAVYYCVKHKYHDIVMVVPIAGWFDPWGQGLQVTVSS
Sequence of 5345_I01 (PGT-137) (antibody) (VL): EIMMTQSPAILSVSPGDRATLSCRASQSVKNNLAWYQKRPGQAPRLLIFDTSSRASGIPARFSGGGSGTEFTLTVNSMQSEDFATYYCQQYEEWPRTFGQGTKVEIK

Row | Substance | IC50 (µg/mL), pseudovirus neutralization [1] [µg/mL] | IC50, pseudovirus neutralization [2] [µg/mL] | IC50 (µg/mL), pseudovirus neutralization [3] [µg/mL] | IC50 (µg/mL), pseudovirus neutralization [4] [µg/mL] | IC50 (µg/mL), pseudovirus neutralization [5] [µg/mL] | IC50 (µg/mL), pseudovirus neutralization [6] [µg/mL] | IC50 (µg/mL), pseudovirus neutralization [7] [µg/mL] | IC50 (µg/mL), pseudovirus neutralization [8] [µg/mL] | IC50, pseudovirus neutralization [9] [µg/mL] | IC50, pseudovirus neutralization [10] [µg/mL] | IC50, pseudovirus neutralization [11] [µg/mL] | IC50, pseudovirus neutralization [12] [µg/mL] | IC50, pseudovirus neutralization [13] [µg/mL] | IC50 (µg/mL), pseudovirus neutralization [17] [µg/mL] | IC50 (µg/mL), pseudovirus neutralization [18] [µg/mL] | IC50, pseudovirus neutralization [19] [µg/mL] | other results
1 | 5114_A19 (PGT-128) (antibody) | > 50 | > 50 | 1.48 | 0.011 | 0.277 | 0.007 | 0.033 | 0.007 | 14.4 |  |  |  |  |  |  |  | 
2 | 5123_A06 (PGT-125) (antibody) |  |  |  |  |  |  |  |  |  | > 50 | > 50 | > 50 | > 50 | 0.008 | > 50 | 0.064 | Neutralization by PGT-125, IC50 [14]: > 10 µg/mL; Neutralization by PGT-125, IC80 [14]: > 10 µg/mL; Neutralization by PGT-125, IC90 [14]: > 10 µg/mL; Neutralization by PGT-125, IC95 [14]: > 10 µg/mL; IC50, pseudovirus neutralization [15]: 0.0382 µg/mL; IC50, pseudovirus neutralization [16]: 0.0359 µg/mL
3 | 5136_H01 (PGT-131) (antibody) | > 50 | > 50 | > 50 | > 50 | > 50 | > 50 | > 50 | > 50 | > 50 |  |  |  |  |  |  |  | 
4 | 5141_B17 (PGT-126) (antibody) |  |  |  |  |  |  |  |  |  | > 50 | > 50 | 0.052 | > 50 | 0.01 | > 50 | 0.078 | IC50, pseudovirus neutralization [15]: 0.0093 µg/mL; IC50, pseudovirus neutralization [16]: 0.0249 µg/mL
5 | 5145_B14 (PGT-127) (antibody) |  |  |  |  |  |  |  |  |  | > 50 | > 50 | 1.9 | > 50 | 0.021 | > 50 | 0.279 | 
6 | 5329_C19 (PGT-136) (antibody) | > 50 | > 50 | > 50 | > 50 | > 50 | > 50 | > 50 | > 50 | 33.7 |  |  |  |  |  |  |  | 
7 | 5343_B08 (PGT-135) (antibody) | 1.11 | > 50 | 5.15 | > 50 | > 50 | 0.088 | > 50 | > 50 | 1.47 |  |  |  |  |  |  |  | 
8 | 5345_I01 (PGT-137) (antibody) | > 50 | > 50 | > 50 | > 50 | > 50 | > 50 | > 50 | > 50 | > 50 |  |  |  |  |  |  |  | 
9 | PGV04 (antibody) |  |  |  |  |  | 0.171 |  |  |  |  |  |  |  | 1.23 | 0.879 |  | IC50 (µg/mL), pseudovirus neutralization [20]: > 50 µg/mL; IC50 (µg/mL), pseudovirus neutralization [21]: 1.24 µg/mL; IC50 (µg/mL), pseudovirus neutralization [22]: 0.056 µg/mL; IC50 (µg/mL), pseudovirus neutralization [23]: 0.083 µg/mL; IC50 (µg/mL), pseudovirus neutralization [24]: 0.569 µg/mL; IC50 (µg/mL), pseudovirus neutralization [25]: 0.027 µg/mL
